We go through two molecules from patent publication US7790682B1, “Engineered human acidic fibroblast growth factors and associated methods” (The Florida State University Research Foundation, Inc., priority 2003, dated 2010).

The test system of one series is NIH 3T3 fibroblasts. Kind of series: Cell proliferation (mitogenic activity) assay. The class given is cell-based. The note with it: predicted from data on other Δ120-122 mutants. As for the experimental part: NIH 3T3 fibroblasts were initially plated in Dulbecco's modified Eagle's medium (DMEM) (American Type Culture Collection, Manassas Va.) supplemented with 10% (v/v) newborn calf serum (NCS) (Sigma, St. Louis Mo.), 100 units of penicillin, 100 μg streptomycin, 0.25 μg Fungizone™ and 0.01 mg/ml gentamicin (Gibco, Carlsbad Calif.) (“serum-rich” medium) in T75 tissue culture flasks (Fisher, Pittsburgh Pa.). The cultures were incubated at 37° C. and all cell growth was performed with 5% CO2 supplementation. At approximately 80% cell confluence, the cells were washed with 5 ml cold 0.14M NaCl, 5.1 mM KCl, 0.7 mM Na2HPO4 and 24.8 mM Trizma® base, pH 7.4 (TBS) and subsequently treated with 5 ml of a 0.025% trypsin solution (Invitrogen Corp., Carlsbad Calif.). Cell synchronization was initiated by serum starvation in DMEM with 0.5% NCS, 100 units of penicillin, 100 μg streptomycin, 0.25 μg Fungizone™ and 0.01 mg/ml gentamicin (“starvation” medium). The cells were seeded in T25 tissue culture flasks (Fisher, Pittsburgh, Pa.) at a cell density of 3.0×10^4 cells/cm^2 (representing ˜20% confluence). Duplicate flasks were used for each protein concentration. Cultures were incubated for 48 hours at 37° C., the medium was then decanted and replaced with fresh medium supplemented with the appropriate concentration of FGF-1 polypeptide, and incubated for an additional 48 hours. After this incubation, the medium was decanted and the cells were washed with 1 ml cold TBS pH 7.4. 1 ml of 0.025% trypsin was then added to release the cells from the flask surface, and 2 ml of serum-rich medium were added to dilute and inhibit the trypsin. The cells were counted using a hemocytometer (Hausser Scientific Partnership, Horsham Pa.). Experiments were performed in quadruplicate and the cell densities were averaged. The relationship between the cell number and log concentration of added growth factor was fit to a sigmoidal function.
Mitogenic activity towards NIH 3T3 fibroblasts was determined for WT*, SYM5, SYM5Δ104-106, SYM5Δ120-122, and SYM6ΔΔ mutants. […] The NIH 3T3 fibroblast proliferative activity of WT* FGF-1 yielded an effective concentration for 50% maximal stimulation (EC50) of 60 ng/ml (FIG. 3).

The nature of series [1]: Heparin Sepharose affinity chromatography / heparin-binding affinity. The settings on record: predicted from data on other Δ120-122 mutants. The source says: All studies herein disclosed utilized a synthetic gene for the 140 amino acid form of human FGF-1 with the addition of an amino-terminal six residue “His-tag” to facilitate purification using nickel nitrilotriacetic acid (Ni-NTA) affinity resin (QIAGEN, Valencia Calif.). The QuikChange® site-directed mutagenesis protocol (Stratagene, La Jolla Calif.) was used to introduce mutations, individually or in combination, using mutagenic oligonucleotides of 25 to 31 bases in length (Biomolecular Analysis Synthesis and Sequencing Laboratory, Florida State University). For deletions involving residues 104-106 and 120-122, mutagenic oligonucleotides were used to delete these positions as well as to simultaneously create point mutations Ala103 ? Gly and Arg119 ? Gly, respectively. […]
All mutant proteins, with the exception of the SYM6 mutant were expressed at levels similar to the WT* protein (i.e. ˜30-100 mg/L). […] Phe, and E280nm (0.1%, 1 cm)=1.31 for all deletion mutations (determined by dithionitrobenzoate titration of cysteine residues).
To quantify the reduced affinity for heparin (a polysulfonated polysaccharide) we determined the affinity for sucrose octasulfate, a structural mimic of a heparin dimer, by isothermal titration calorimetry. […]

Series [2] can be described thus: Isothermal equilibrium denaturation in guanidine HCl monitored by CD. The settings on record: relative to SYM6ΔΔ. The class given is physicochemical. As for the experimental part: Protein samples were equilibrated overnight in 20 mM N-2-(acetamido)iminodiacetic acid (ADA), 100 mM NaCl pH 6.60 at 298K in 0.1M increments of guanidine HCl (GuHCl). All samples contained a final protein concentration of 25 μM. An Aviv model 202 circular dichroism spectrometer (Proterion Corp., Piscataway, N.J.) equipped with a Peltier controlled temperature unit maintaining a constant temperature of 298K was used for all spectroscopic measurements. For each sample, triplicate scans were collected and averaged. Buffer traces were collected, averaged and subtracted from the sample traces. Data smoothing was performed prior to buffer subtraction using a 5-point Fourier transform filter. The denaturation process was monitored by observing the change in CD signal at 227 nm with increasing GuHCl, according to published references. The general purpose non-linear least squares fitting program DataFit™ (Oakdale Engineering, Oakdale Pa.) was used to fit the change in molar ellipticity at 227 nm versus GuHCl concentration to a six parameter two state model: F=(F0N+SN[D]+F0D+SD[D])e^−((ΔG0+m[D]/RT)/1+e^−((ΔG0+m[D]/RT) (1) where [D] is the denaturant concentration, F0N and F0D are the 0M denaturant molar ellipticity intercepts for the native and denatured states, respectively, and SN and SD are the slopes of the native and denatured state baselines, respectively. ΔG0 and m describe the linear function of the unfolding free energy versus denaturant concentration at 298K. The effect of a given mutation upon the stability of the protein (ΔΔG) was calculated by taking the difference between the Cm values for WT* and mutant and multiplying by the average of the m values, as described by Pace and Scholtz (Measuring the conformational stability of a protein; in Protein Structure: A Practical Approach, Creighton, T. E., ed., pp. 299-321, Oxford University Press, Oxford; 1997): ΔΔG=(CmWT*−Cm mutant)(mWT*+mmutant)/2 (2) Folding Kinetics Measurements.
Previous studies by others of the stability and folding of FGF-1 have been performed by monitoring the fluorescence signal of the single buried Trp 107 in FGF-1. This Trp in the WT* structure is somewhat unusual in that it is more highly quenched in the native state than the denatured. […] We have previously compared the fluorescence and CD spectroscopic response of FGF-1 to denaturation by GuHCl and shown essentially indistinguishable results for both his-tagged and non-his-tagged forms. A tabulation of the mutant thermodynamic data from isothermal equilibrium denaturation, monitored by CD signal, is listed in Table II. The data in this table for the SYM6 mutant are from our previously published isothermal equilibrium denaturation study monitored by fluorescence.

A short description of series [3]: Precipitation during purification or concentration. The class given is physicochemical. Here is the method: All mutant proteins, with the exception of the SYM6 mutant were expressed at levels similar to the WT* protein (i.e. ˜30-100 mg/L). […] The His-tag provides the WT* and mutant FGF-1 proteins with nickel binding affinity, and FGF-1 naturally has a heparin binding site. These two affinity sites were employed in a purification scheme utilizing sequential nickel-NTA and heparin Sepharose® affinity chromatography resins. However, mutant forms of FGF-1 involving the Δ120-122 mutation lacked heparin-binding affinity. These mutants were, therefore, purified by the substitution of gel filtration chromatography for the heparin Sepharose® affinity chromatography. The extinction coefficients used for concentration determination were E280nm (0.1%, 1 cm)=1.26 for WT* and other mutations not involving deletions or the Leu44 ? […] Phe, and E280nm (0.1%, 1 cm)=1.31 for all deletion mutations (determined by dithionitrobenzoate titration of cysteine residues).
Due to the relatively weak differential CD signal of native and denatured FGF-1, the folding kinetics study required relatively high protein concentrations (>5 mg/ml). […] The SYM6Δ120-122 mutant is substantially destabilized relative to the WT* protein (see Table II) and presents a relatively short “folding arm” in the Chevron plot, for this reason there is greater uncertainty associated with the folding kinetics determined for this mutant. […]

For series [4] the following is noted: monitored by fluorescence signal, cited from earlier work.

Entries after “also recorded” stand apart in the source; their conditions may differ.

B1: WTΔ120-122: Wild type FGF-1 polypeptide with a deletion at positions 120-122, SEQ ID NO: 3 (protein)
chain: FNLPPGNYKKPKLLYCSNGGHFLRILPDGTVDGTRDRSDQHIQLQLSAESVGEVYIKSTETGQYLAMDTDGLLYGSQTPNEECLFLERLEENHYNTYISKKHAEKNWFVGLKKNGSCKGTHYGQKAILFLPLPVSSD
modifications: Human FGF-1 mutant WTD120-122
As for B1, the “mitogenicity, predicted” value in the series with NIH 3T3 fibroblasts was “increased biological activity with regard to mitogenicity”. Besides, the “heparin binding affinity, predicted” value in series [1] is “decreased heparin binding affinity”.

B2: SYM6: FGF-1 core mutant Leu44→Phe/Met67→Ile/Leu73→Val/Val109→Leu/Leu111→Ile/Cys117→Val (protein, UniProt P05230 16-155, looked up, variant L44F M67I L73V V109L L111I C117V)
Fibroblast growth factor 1: FNLPPGNYKKPKLLYCSNGGHFLRILPDGTVDGTRDRSDQHIQFQLSAESVGEVYIKSTETGQYLAIDTDGLVYGSQTPNEECLFLERLEENHYNTYISKKHAEKNWFLGIKKNGSVKRGPRTHYGQKAILFLPLPVSSD
For the molecule B2, in series [2], the “effect on stability of the two loop insertions” value is given as “+25.3 kJ/mol”. Further, the “precipitation / solubility (in words)” value in series [3] is on record as “tendency to precipitate during purification; also recorded: typically precipitated during concentration”. In addition, in series [4] (previously reported), the Cm is reported as 0.54 ± 0.01 M, the m-value is reported as 19.3 ± 1.9 kJ/mol M and the ΔG0 was 2.49 ± 0.19 kcal/mol. The ΔΔG in series [4] (relative to WT*, previously reported data) was 2.44 kcal/mol.
